Read-outs that look alike come from different tables or passages of the source. Non-standard residues stand in square brackets, D forms with d. No end group written: not given here. *: point of attachment. Palmitoyl = CCCCCCCCCCCCCCCC(=O)*; Aib = CC(C)(N)C(=O)O
How the values were obtained:
Assay in all cases: cell-based or functional assay
glucagon receptor [1] = biological target: T1, glucagon receptor (human, UniProt P47871 26-477)
GLP-1 receptor [2] = biological target: T2, GLP-1 receptor (human, UniProt P43220 24-463)
glucagon receptor [3] = biological target: T1, glucagon receptor; remark: listed apart in the source
GLP-1 receptor [4] = biological target: T2, GLP-1 receptor; remark: listed apart in the source
glucagon receptor [5] = biological target: T1, glucagon receptor; remark: listed apart in the source
glucagon receptor [6] = biological target: T1, glucagon receptor; remark: listed apart in the source
GLP-1 receptor [7] = biological target: T2, GLP-1 receptor; remark: listed apart in the source
GLP-1 receptor [8] = biological target: T2, GLP-1 receptor; remark: listed apart in the source

T1 sequence (P47871 26-477): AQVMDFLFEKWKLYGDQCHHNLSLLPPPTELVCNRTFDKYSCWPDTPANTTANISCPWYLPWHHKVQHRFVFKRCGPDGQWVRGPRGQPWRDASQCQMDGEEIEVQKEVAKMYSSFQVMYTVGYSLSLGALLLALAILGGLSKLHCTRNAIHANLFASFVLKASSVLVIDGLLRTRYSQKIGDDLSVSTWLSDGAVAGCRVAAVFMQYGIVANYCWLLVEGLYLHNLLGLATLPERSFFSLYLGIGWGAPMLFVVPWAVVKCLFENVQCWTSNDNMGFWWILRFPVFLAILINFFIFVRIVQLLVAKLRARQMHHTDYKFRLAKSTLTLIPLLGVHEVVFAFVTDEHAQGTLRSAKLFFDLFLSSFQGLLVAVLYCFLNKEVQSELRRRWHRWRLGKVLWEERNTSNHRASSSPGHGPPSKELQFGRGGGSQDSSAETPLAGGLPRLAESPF

B1: Glucagon Analog 65 (peptide)
peptide: HSQGTFTSDYSKYLDEKRAKEFVQWLMNT-NH2
modifications: not fully specified; also: further groups not given here
% Relative Activity vs native glucagon (glucagon receptor [1]): 264% | EC50 (cAMP luciferase reporter) (glucagon receptor [1]): 0.053 nM | % Relative Activity vs native GLP-1 (GLP-1 receptor [2]): 64% | EC50 (cAMP luciferase reporter) (GLP-1 receptor [2]): 0.036 nM

B2: Glucagon Analog 66 (peptide)
peptide: HSQGTFTSDYSKYLDSKRAQEFVQWLMNT-NH2
modifications: also: non-coded residues and acylation only
EC50 (cAMP luciferase reporter) (GLP-1 receptor [2]): 0.13 nM

B3: Glucagon Analog 67 (peptide)
peptide: HSQGTFTSDYSKYLDERRAKDFVQWLMNT-NH2
modifications: not fully specified; also: further groups not given here
% Relative Activity vs native glucagon (glucagon receptor [1]): 93% | EC50 (cAMP luciferase reporter) (glucagon receptor [1]): 0.077 nM | % Relative Activity vs native GLP-1 (GLP-1 receptor [2]): 47% | EC50 (cAMP luciferase reporter) (GLP-1 receptor [2]): 0.071 nM

B4: Glucagon Analog 68 (peptide)
peptide: HSQGTFTSDYSKYLDERRAKEFVQWLMNT-NH2
modifications: not fully specified; also: further groups not given here
% Relative Activity vs native glucagon (glucagon receptor [1]): 104% | EC50 (cAMP luciferase reporter) (glucagon receptor [1]): 0.068 nM | % Relative Activity vs native GLP-1 (GLP-1 receptor [2]): 44% | EC50 (cAMP luciferase reporter) (GLP-1 receptor [2]): 0.075 nM

B5: Glucagon Analog 78 (peptide)
peptide: HSQGTFTSDKSKYLDEQAAKEFIC(PEG 40 kDa)WLLDTGG-NH2
modifications: not fully specified; also: further groups not given here
% Relative Activity vs native glucagon (glucagon receptor [3]): 44% | EC50 (cAMP luciferase reporter) (glucagon receptor [3]): 140000 nM | % Relative Activity vs native GLP-1 (GLP-1 receptor [4]): 196% | EC50 (cAMP luciferase reporter) (GLP-1 receptor [4]): 0.026 nM

B6: Glucagon Analog 79 (peptide)
peptide: HSQGTFTSDKSKYLDEQAAKEFIC(PEG 40 kDa)WLLDT-NH2
modifications: not fully specified; also: further groups not given here
% Relative Activity vs native glucagon (glucagon receptor [3]): 26% | EC50 (cAMP luciferase reporter) (glucagon receptor [3]): 240000 nM | % Relative Activity vs native GLP-1 (GLP-1 receptor [4]): 41% | EC50 (cAMP luciferase reporter) (GLP-1 receptor [4]): 0.125 nM

B7: Glucagon Analog 81 (peptide)
peptide: HAQGTFTSDKSKYLDERAAQDFVC(PEG 40 kDa)WLLDT-NH2
modifications: also: other non-coded residues as, not given here
% Relative Activity vs native glucagon (glucagon receptor [3]): 51.4% | EC50 (cAMP luciferase reporter) (glucagon receptor [3]): 37000 nM | % Relative Activity vs native GLP-1 (GLP-1 receptor [4]): 300% | EC50 (cAMP luciferase reporter) (GLP-1 receptor [4]): 0.012 nM

B8: Glucagon Analog 82 (peptide)
peptide: HSQGTFTSDKSKYLDEQAAKEFICWLLDE-NH2
modifications: not fully specified; also: further groups not given here
% Relative Activity vs native glucagon (glucagon receptor [3]): 121% | EC50 (cAMP luciferase reporter) (glucagon receptor [3]): 14000 nM | % Relative Activity vs native GLP-1 (GLP-1 receptor [4]): 345% | EC50 (cAMP luciferase reporter) (GLP-1 receptor [4]): 0.02 nM

B9: Glucagon Analog 83 (peptide)
peptide: HSQGTFTSDKSKYLDEQAAKEFICWLLDTE-NH2
modifications: not fully specified; also: further groups not given here
% Relative Activity vs native glucagon (glucagon receptor [3]): 61% | EC50 (cAMP luciferase reporter) (glucagon receptor [3]): 28000 nM | % Relative Activity vs native GLP-1 (GLP-1 receptor [4]): 288% | EC50 (cAMP luciferase reporter) (GLP-1 receptor [4]): 0.024 nM

B10: Glucagon Analog 57 (peptide)
peptide: HSQGTFTSDKSKYLDEQAAKEFICWLLDT
modifications: also: DPP-IV-resistant residue at position 1 or 2, not given here
% Relative Activity vs native glucagon (glucagon receptor [5]): 1% | EC50 (cAMP luciferase reporter) (glucagon receptor [5]): 4.8 nM

B11: Glucagon Analog 32 (peptide)
peptide: HSQGTFTSDYSKYLDEEAVRLFICWLMNT-NH2
modifications: also: DPP-IV-resistant residue at position 1 or 2
EC50 (cAMP luciferase reporter) (glucagon receptor [6]): 0.22 nM | EC50 (cAMP luciferase reporter) (GLP-1 receptor [7]): 0.007 nM

B12: Glucagon Analog 34 (peptide)
peptide: HSQGTFTSDYSKYLDEEAVRLFICWLMNT-NH2
modifications: also: DPP-IV-resistant residue at position 1 or 2
EC50 (cAMP luciferase reporter) (glucagon receptor [6]): 0.404 nM | EC50 (cAMP luciferase reporter) (GLP-1 receptor [7]): 0.018 nM

B13: Glucagon Analog 37 (peptide)
peptide: HSQGTFTSDKSKYLDEEAVRLFIEWLMNT-NH2
modifications: also: Lys-γGlu-C16 (K(B)) at unstated position
EC50 (cAMP luciferase reporter) (glucagon receptor [6]): 0.119 nM | EC50 (cAMP luciferase reporter) (GLP-1 receptor [7]): 0.011 nM

B14: Glucagon Analog 39 (peptide)
peptide: HSQGTFTSDK(Palmitoyl)SKYLDEEAVRLFIEWLMNT-NH2
EC50 (cAMP luciferase reporter) (glucagon receptor [6]): 2.54 nM | EC50 (cAMP luciferase reporter) (GLP-1 receptor [7]): 0.033 nM

B15: Glucagon Analog 84 (peptide)
peptide: HSQGTFTSDYSKYLDEQAVRLFICWLLDGGPSSGAPPPS-NH2
modifications: not fully specified; also: further groups not given here
EC50 (cAMP luciferase reporter) (glucagon receptor [6]): 0.132 nM | percent in parentheses (not explained) (glucagon receptor [6]): 14.4% | EC50 (cAMP luciferase reporter) (GLP-1 receptor [7]): 0.006 nM | percent in parentheses (not explained) (GLP-1 receptor [7]): 600%

B16: Glucagon Analog 85 (peptide)
peptide: HSQGTFTSDKSKYLDEQAVRLFIC(PEG 40 kDa)WLLDT-NH2
modifications: also: acylated amino acid at position 10, acyl group not given here
EC50 (cAMP luciferase reporter) (glucagon receptor [6]): 0.107 nM | percent in parentheses (not explained) (glucagon receptor [6]): 16% | EC50 (cAMP luciferase reporter) (GLP-1 receptor [7]): 0.013 nM | percent in parentheses (not explained) (GLP-1 receptor [7]): 284%

B17: Peptide 14 (peptide)
peptide: KHSQETFTSDYSKYLDSRRAQDFVQWLMNT
modifications: not fully specified; amidated unless FIG. 1 shows OH; lactam, D-residues, Orn/Dab only as drawn in FIG. 1
EC50 (cAMP luciferase reporter) (GLP-1 receptor [8]): 33 nM

B18: Glucagon Analog 86 (peptide)
peptide: HSQGTFTSDYSKYLD[Aib]KAVRLFICWLLDT-NH2
EC50 (cAMP luciferase reporter) (glucagon receptor [6]): 0.035 nM | percent in parentheses (not explained) (glucagon receptor [6]): 43% | EC50 (cAMP luciferase reporter) (GLP-1 receptor [7]): 0.035 nM | percent in parentheses (not explained) (GLP-1 receptor [7]): 106%

B19: Glucagon Analog 87 (peptide)
peptide: HSQGTFTSDYSKYLDEQAVRLFICWLLDT-NH2
modifications: not fully specified; also: further groups not given here
EC50 (cAMP luciferase reporter) (glucagon receptor [6]): 0.021 nM | percent in parentheses (not explained) (glucagon receptor [6]): 71% | EC50 (cAMP luciferase reporter) (GLP-1 receptor [7]): 0.013 nM | percent in parentheses (not explained) (GLP-1 receptor [7]): 284%

B20: Peptide 15 (peptide)
peptide: KHSQETFTSDYSKYLDSRRAQDFVQWLMNT
modifications: not fully specified; amidated unless FIG. 1 shows OH; lactam, D-residues, Orn/Dab only as drawn in FIG. 1
EC50 (cAMP luciferase reporter) (GLP-1 receptor [8]): 73.4 nM

B21: Peptide 16 (peptide)
peptide: HSQKTFTEDYSKYLDSRRAQDFVQWLMNT
modifications: not fully specified; also: further groups not given here
EC50 (cAMP luciferase reporter) (GLP-1 receptor [8]): 121 nM

B22: Peptide 1 (peptide)
peptide: HSQGTFTSDYSKYLDSKRAQEFVQWLMNT-NH2
EC50 (cAMP luciferase reporter) (GLP-1 receptor [8]): 0.13 nM

B23: Glucagon Analog 61 (peptide)
peptide: HSQGTFTSDYSKYLDEKRAKEFVCWLLDGGPSSGAPPPS-NH2
modifications: not fully specified; also: further groups not given here
% Relative Activity vs native glucagon (glucagon receptor [1]): 88% | EC50 (cAMP luciferase reporter) (glucagon receptor [1]): 0.017 nM | % Relative Activity vs native GLP-1 (GLP-1 receptor [2]): 39% | EC50 (cAMP luciferase reporter) (GLP-1 receptor [2]): 0.096 nM
